Test results published in patent publication US20100015135A1.

Experiments:
[1] = target: murine EphB4-His (murine) (UniProt P54761); assay: SPR, BIAcore-3000, antibody coupled to CM5 chip, EphB4-His injected, 25 C
human EphB4-His (human) = target: T1, human EphB4-His (human) (UniProt P54760); assay: as above
T1 sequence (looked up): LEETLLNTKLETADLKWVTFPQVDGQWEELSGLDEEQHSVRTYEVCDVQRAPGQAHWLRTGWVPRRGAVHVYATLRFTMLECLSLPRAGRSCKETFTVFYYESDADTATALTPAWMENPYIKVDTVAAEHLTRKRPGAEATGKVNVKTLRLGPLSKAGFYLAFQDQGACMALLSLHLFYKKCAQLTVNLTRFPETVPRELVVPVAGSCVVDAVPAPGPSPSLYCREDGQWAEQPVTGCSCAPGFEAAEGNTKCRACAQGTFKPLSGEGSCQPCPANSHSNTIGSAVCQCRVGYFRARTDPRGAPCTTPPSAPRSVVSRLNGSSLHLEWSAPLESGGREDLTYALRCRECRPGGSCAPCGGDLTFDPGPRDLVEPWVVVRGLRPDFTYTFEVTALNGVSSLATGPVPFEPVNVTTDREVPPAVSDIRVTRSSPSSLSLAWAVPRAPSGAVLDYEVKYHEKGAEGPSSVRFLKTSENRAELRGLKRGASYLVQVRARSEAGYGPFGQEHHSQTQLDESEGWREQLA

B1: anti-EphB4 antibody clone YW30.35 (antibody, V domains shown)
VH: EVQLVESGGGLVQPGGSLRLSCAASGFTISGYYIHWVRQAPGKGLEWVGGIYPYSGSTDYADSVKGRFTISADTSKNTAYLQMNSLRAEDTAVYYCARGSGLRLGGLDYAMDYWGQGTLVTVSS
VL: DIQMTQSPSSLSASVGDRVTITCRASQDVSTAVAWYQQKPGKAPKLLIYSASFLYSGVPSRFSGSGSGTDFTLTISSLQPEDFATYYCQQSYTTPPTFGQGTKVEIK
- Kd [1]: 2.4 nM
- koff [1]: 7.5e-05 s⁻¹
- kon [1]: 31000 M⁻¹ s⁻¹
- Kd (human EphB4-His (human)): 32 nM
- koff (human EphB4-His (human)): 9.6e-05 s⁻¹
- kon (human EphB4-His (human)): 3000 M⁻¹ s⁻¹

B2: anti-EphB4 antibody clone YW30.35.1D2 (antibody, V domains shown)
VH: EVQLVESGGGLVQPGGSLRLSCAASGFTISGYYIHWVRQAPGKGLEWVGGIYPYSGSTDYADSVKGRFTISADTSKNTAYLQMNSLRAEDTAVYYCARSSGLRLGGLDYAMDYWGQGTLVTVSS
VL: DIQMTQSPSSLSASVGDRVTITCRASQDSEIFLAWYQQKPGKAPKLLIYSASNLESGVPSRFSGSGSGTDFTLTISSLQPEDFATYYCQQSNAVPLTFGQGTKVEIK
- Kd [1]: < 0.04 nM
- koff [1]: < 5e-06 s⁻¹
- kon [1]: 128000 M⁻¹ s⁻¹
- Kd (human EphB4-His (human)): < 0.14 nM
- koff (human EphB4-His (human)): < 5e-06 s⁻¹
- kon (human EphB4-His (human)): 36000 M⁻¹ s⁻¹

B3: anti-EphB4 antibody clone YW30.35.2D8 (antibody, V domains shown)
VH: EVQLVESGGGLVQPGGSLRLSCAASGFSISNYYLHWVRQAPGKGLEWVGGIYLYGSSSEYADSVKGRFTISADTSKNTAYLQMNSLRAEDTAVYYCARGSGLRLGGLDYAMDYWGQGTLVTVSS
VL: DIQMTQSPSSLSASVGDRVTITCRASQDVSTAVAWYQQKPGKAPKLLIYSASFLYSGVPSRFSGSGSGTDFTLTISSLQPEDFATYYCQESTTTPPTFGQGTKVEIK
- Kd [1]: < 0.05 nM
- koff [1]: < 5e-06 s⁻¹
- kon [1]: 92000 M⁻¹ s⁻¹
- Kd (human EphB4-His (human)): < 0.12 nM
- koff (human EphB4-His (human)): < 5e-06 s⁻¹
- kon (human EphB4-His (human)): 40000 M⁻¹ s⁻¹

B4: anti-EphB4 antibody clone YW30.35.2D12 (antibody, V domains shown)
VH: EVQLVESGGGLVQPGGSLRLSCAASGFTISGYYIHWVRQAPGKGLEWVGGIYLYSGSRGYADSVKGRFTISADTSKNTAYLQMNSLRAEDTAVYYCARGSGLRLGGLDYAMDYWGQGTLVTVSS
VL: DIQMTQSPSSLSASVGDRVTITCRASQDVSTAVAWYQQKPGKAPKLLIYSASFLYSGVPSRFSGSGSGTDFTLTISSLQPEDFATYYCQKSETIPPSFGQGTKVEIK
- Kd (human EphB4-His (human)): < 0.19 nM
- koff (human EphB4-His (human)): < 5e-06 s⁻¹
- kon (human EphB4-His (human)): 27000 M⁻¹ s⁻¹

B5: anti-EphB4 antibody clone 30.35.2D13 (antibody, V domains shown)
VH: EVQLVESGGGLVQPGGSLRLSCAASGFTISGYYIHWVRQAPGKGLEWVGGIYLYSGSTDYADSVKGRFTISADTSKNTAYLQMNSLRAEDTAVYYCARGSGLRLGGLDYAMDYWGQGTLVTVSS
VL: DIQMTQSPSSLSASVGDRVTITCRASQDVSTAVAWYQQKPGKAPKLLIYSASFLYSGVPSRFSGSGSGTDFTLTISSLQPEDFATYYCQQTAQTPETFGQGTKVEIK
- Kd (human EphB4-His (human)): < 0.11 nM
- koff (human EphB4-His (human)): < 5e-06 s⁻¹
- kon (human EphB4-His (human)): 45000 M⁻¹ s⁻¹
